According to publication PMC4634812, “Characterization of proliferating cell nuclear antigen (PCNA) from pathogenic yeast Candida albicans and its functional analyses in S. Cerevisiae” (BMC Microbiology, 2015):

How the values were obtained:
[1] = target: Candida albicans PCNA G178S mutant (Candida albicans SC5314) (UniProt Q5AMN0); test: cross-linking; about 20 μg protein in 20 mM HEPES pH 7.5 with glutaraldehyde, 5 min at 37 °C, then 12 % SDS-PAGE
[2] = target: the molecule itself; test: native gel or EMSA; 12 % non-denaturing polyacrylamide gel, ~1 μg of each purified protein, Coomassie stain
[3] = target: T1, Yeast DNA polymerase eta (ScPolη) (S. cerevisiae, UniProt Q04049 1-632); test: SPR; Bio-Rad XPR 36; CaPCNA, ScPCNA or BSA (~350 RU) amine-coupled on a GLC chip; ScPolη injected at 25-500nM; 25 mM HEPES pH 7.5, 10 % glycerol, 200 mM sodium acetate, 8 mM magnesium acetate, 1 mM DTT, 0.005 % Tween-20, 0.2 mg/ml BSA; 20 °C; 1:1 Langmuir fit; settings: both partners purified
T1 construct: DNA polymerase eta (Rad30) of S. cerevisiae; also called Rad30; ScRAD30; source: S. cerevisiae YRP654 (protease deficient), GAL-PGK-GST-ScRAD30 construct, purified by the same protocol as PCNA
T1 sequence (looked up): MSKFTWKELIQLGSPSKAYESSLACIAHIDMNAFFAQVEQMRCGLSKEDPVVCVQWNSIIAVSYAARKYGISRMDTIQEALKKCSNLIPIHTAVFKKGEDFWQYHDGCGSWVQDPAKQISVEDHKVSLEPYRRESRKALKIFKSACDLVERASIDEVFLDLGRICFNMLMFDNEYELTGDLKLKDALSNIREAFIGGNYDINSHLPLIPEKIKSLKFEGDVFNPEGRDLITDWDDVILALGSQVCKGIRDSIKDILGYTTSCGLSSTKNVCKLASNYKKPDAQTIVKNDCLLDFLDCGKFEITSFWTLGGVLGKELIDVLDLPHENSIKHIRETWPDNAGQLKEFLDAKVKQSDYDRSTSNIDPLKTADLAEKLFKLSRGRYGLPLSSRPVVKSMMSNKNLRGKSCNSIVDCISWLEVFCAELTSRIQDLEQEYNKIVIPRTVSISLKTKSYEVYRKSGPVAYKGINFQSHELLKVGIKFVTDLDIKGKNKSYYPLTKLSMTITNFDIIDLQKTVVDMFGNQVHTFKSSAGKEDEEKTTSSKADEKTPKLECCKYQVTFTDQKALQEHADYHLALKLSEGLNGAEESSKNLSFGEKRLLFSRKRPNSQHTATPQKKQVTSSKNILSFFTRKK

[4] = target: T1, Yeast DNA polymerase eta (ScPolη); test: SPR; settings: both partners purified
[5] = target: the molecule itself; test: cross-linking; about 20 μg protein in 20 mM HEPES pH 7.5 with glutaraldehyde, 5 min at 37 °C, then 12 % SDS-PAGE

Molecule: Candida albicans PCNA G178S mutant (from UniProt Q5AMN0 1-259) (natural protein)
- stoichiometry N [1]: 2

B1: Saccharomyces cerevisiae PCNA (ScPCNA), wild type (natural protein, S. cerevisiae)
chain: MLEAKFEEASLFKRIIDGFKDCVQLVNFQCKEDGIIAQAVDDSRVLLVSLEIGVEAFQEYRCDHPVTLGMDLTSLSKILRCGNNTDTLTLIADNTPDSIILLFEDTKKDRIAEYSLKLMDIDADFLKIEELQYDSTLSLPSSEFSKIVRDLSQLSDSINIMITKETIKFVADGDIGSGSVIIKPFVDMEHPETSIKLEMDQPVDLTFGAKYLLDIIKGSSLSDRVGIRLSSEAPALFQFDLKSGFLQFFLAPKFNDEE
notes: PCNA (POL30) of S. cerevisiae; The cloning of the bacterial ScPCNA construct is not described; also called yeast PCNA; ScPol30; source: E. coli BL21-DE3, purified (glutathione beads, eluted by Prescission protease)
- stoichiometry N [2]: 3
- Kd [3]: 80.1 nM
- koff [3]: 0.00138 s⁻¹

B2: Candida albicans proliferating cell nuclear antigen (CaPCNA), wild type (natural protein, Candida albicans SC5314, UniProt Q5AMN0 1-259, looked up)
chain: MLEGKFEEAALLKKVVEAIKDCVKKCNFNCSEHGITVQAVDDSRVLLVSLLIGQTSFSEYRCDRDVTLGIDLESFSKIIKSANNEDFLTLLAEDSPDQIMAILEEKQKEKISEYSLKLMDIDSEFLQIDDMEYDAVVNMPSSDFAKLVRDLKNLSESLRVVVTKDSVKFTSEGDSGSGSVILKPYTNLKNERESVTISLDDPVDLTFGLKYLNDIVKAATLSDVITIKLADKTPALFEFKMQSGGYLRFYLAPKFDDDE
notes: PCNA (POL30) of Candida albicans SC5314, orf19.4616 of the Candida Genome Database, 259 amino acids; the orf was amplified from genomic DNA with primers from the start to the stop codon; A few residues of the Prescission site and the cloning site may remain at the N-terminus after cleavage; also called orf19.4616; CaO19.12086; source: E. coli BL21-DE3, purified (glutathione beads, eluted by …)
- Kd [4]: 10.6 nM
- koff [4]: 0.000166 s⁻¹
- stoichiometry N [2]: 3
- stoichiometry N [5]: 6
